Measured values as given in US20150344570A1 (published 2015).

T1: FcγRIIb extracellular domain with C-terminal His tag (human, UniProt P31994 43-217)
T1 construct: extracellular domain; Soluble receptor used as analyte in Biacore; also called FcgRIIb
T1 sequence (looked up): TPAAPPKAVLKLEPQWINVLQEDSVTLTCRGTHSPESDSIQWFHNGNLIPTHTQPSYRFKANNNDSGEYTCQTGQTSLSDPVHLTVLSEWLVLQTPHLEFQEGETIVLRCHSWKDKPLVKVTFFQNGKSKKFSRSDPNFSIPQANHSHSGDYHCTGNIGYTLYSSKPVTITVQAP


Assays:
[1] = target: T2, FcγRIa extracellular domain with C-terminal His tag (human, UniProt P12314 16-292); assay: ratio He/Con_1a : He/Con_2b (FcγRIa over FcγRIIb), SPR (Biacore)
T2 construct: extracellular domain; Soluble receptor used as analyte in Biacore; also called FcgRI
T2 sequence (P12314 16-292): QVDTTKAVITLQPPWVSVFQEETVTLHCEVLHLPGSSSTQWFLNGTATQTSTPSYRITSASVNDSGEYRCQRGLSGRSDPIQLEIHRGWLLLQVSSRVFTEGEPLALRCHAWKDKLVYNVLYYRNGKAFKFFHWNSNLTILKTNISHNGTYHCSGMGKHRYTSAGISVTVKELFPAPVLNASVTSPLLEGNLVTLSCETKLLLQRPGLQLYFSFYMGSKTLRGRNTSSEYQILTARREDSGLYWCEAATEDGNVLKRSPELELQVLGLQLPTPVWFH

[2] = target: T2, FcγRIa extracellular domain with …; assay: SPR (Biacore), antibody captured, FcγR as analyte; binding relative to GpH7-A5/GpH7-B3/GpL16-k0 = 100
[3] = target: T1, FcγRIIb extracellular domain with …; assay: as above

| Binder | He_1a/2b (Ia/IIb) [1] | He/Con_1a [2] [control = 100] | He/Con_2b [3] [control = 100] |
| --- | --- | --- | --- |
| GpH7-A5/GpH7-B3 variant A327_09D/GpL16-k0 (antibody, human IgG1, kappa, Heterodimerized IgG1, mutation in the GpH7-B3 chain only; also called He Ab) heavy 1: not shown heavy 2: not shown light: DIVMTQSPLSLPVTPGEPASISCQASESLVHSNRNTYLHWYLQKPGQSPQLLIYKVSNRFSGVPDRFSGSGSGTDFTLKISRVEAEDVGVYYCSQNTHVPPTFGQGTKVEIERTVAAPSVFIFPPSDEQLKSGTASVVCLLNNFYPREAKVQWKVDNALQSGNSQESVTEQDSKDSTYSLSSTLTLSKADYEKHKVYACEVTHQGLSSPVTKSFNRGEC | 0.6 | 103 | 172 |
| GpH7-A5/GpH7-B3 variant A327_10E/GpL16-k0 (antibody, human IgG1, kappa, Heterodimerized IgG1, mutation in the GpH7-B3 chain only; also called He Ab) heavy 1: not shown heavy 2: not shown light: DIVMTQSPLSLPVTPGEPASISCQASESLVHSNRNTYLHWYLQKPGQSPQLLIYKVSNRFSGVPDRFSGSGSGTDFTLKISRVEAEDVGVYYCSQNTHVPPTFGQGTKVEIERTVAAPSVFIFPPSDEQLKSGTASVVCLLNNFYPREAKVQWKVDNALQSGNSQESVTEQDSKDSTYSLSSTLTLSKADYEKHKVYACEVTHQGLSSPVTKSFNRGEC | 0.74 | 103 | 140 |
| GpH7-A5/GpH7-B3 variant A330_05P/GpL16-k0 (antibody, human IgG1, kappa, Heterodimerized IgG1, mutation in the GpH7-B3 chain only; also called He Ab) heavy 1: not shown heavy 2: not shown light: DIVMTQSPLSLPVTPGEPASISCQASESLVHSNRNTYLHWYLQKPGQSPQLLIYKVSNRFSGVPDRFSGSGSGTDFTLKISRVEAEDVGVYYCSQNTHVPPTFGQGTKVEIERTVAAPSVFIFPPSDEQLKSGTASVVCLLNNFYPREAKVQWKVDNALQSGNSQESVTEQDSKDSTYSLSSTLTLSKADYEKHKVYACEVTHQGLSSPVTKSFNRGEC | 0.74 | 101 | 137 |
| GpH7-A5/GpH7-B3 variant I332_09D/GpL16-k0 (antibody, human IgG1, kappa, Heterodimerized IgG1, mutation in the GpH7-B3 chain only; also called He Ab) heavy 1: not shown heavy 2: not shown light: DIVMTQSPLSLPVTPGEPASISCQASESLVHSNRNTYLHWYLQKPGQSPQLLIYKVSNRFSGVPDRFSGSGSGTDFTLKISRVEAEDVGVYYCSQNTHVPPTFGQGTKVEIERTVAAPSVFIFPPSDEQLKSGTASVVCLLNNFYPREAKVQWKVDNALQSGNSQESVTEQDSKDSTYSLSSTLTLSKADYEKHKVYACEVTHQGLSSPVTKSFNRGEC | 0.64 | 93.4 | 147 |
| GpH7-A5/GpH7-B3 variant I332_10E/GpL16-k0 (antibody, human IgG1, kappa, Heterodimerized IgG1, mutation in the GpH7-B3 chain only; also called He Ab) heavy 1: not shown heavy 2: not shown light: DIVMTQSPLSLPVTPGEPASISCQASESLVHSNRNTYLHWYLQKPGQSPQLLIYKVSNRFSGVPDRFSGSGSGTDFTLKISRVEAEDVGVYYCSQNTHVPPTFGQGTKVEIERTVAAPSVFIFPPSDEQLKSGTASVVCLLNNFYPREAKVQWKVDNALQSGNSQESVTEQDSKDSTYSLSSTLTLSKADYEKHKVYACEVTHQGLSSPVTKSFNRGEC | 0.68 | 96.3 | 142 |
| GpH7-A5/GpH7-B3 variant L328_02A/GpL16-k0 (antibody, human IgG1, kappa, Heterodimerized IgG1, mutation in the GpH7-B3 chain only; also called He Ab) heavy 1: not shown heavy 2: not shown light: DIVMTQSPLSLPVTPGEPASISCQASESLVHSNRNTYLHWYLQKPGQSPQLLIYKVSNRFSGVPDRFSGSGSGTDFTLKISRVEAEDVGVYYCSQNTHVPPTFGQGTKVEIERTVAAPSVFIFPPSDEQLKSGTASVVCLLNNFYPREAKVQWKVDNALQSGNSQESVTEQDSKDSTYSLSSTLTLSKADYEKHKVYACEVTHQGLSSPVTKSFNRGEC | 0.68 | 98.5 | 144 |
| GpH7-A5/GpH7-B3 variant L328_04F/GpL16-k0 (antibody, human IgG1, kappa, Heterodimerized IgG1, mutation in the GpH7-B3 chain only; also called He Ab) heavy 1: not shown heavy 2: not shown light: DIVMTQSPLSLPVTPGEPASISCQASESLVHSNRNTYLHWYLQKPGQSPQLLIYKVSNRFSGVPDRFSGSGSGTDFTLKISRVEAEDVGVYYCSQNTHVPPTFGQGTKVEIERTVAAPSVFIFPPSDEQLKSGTASVVCLLNNFYPREAKVQWKVDNALQSGNSQESVTEQDSKDSTYSLSSTLTLSKADYEKHKVYACEVTHQGLSSPVTKSFNRGEC | 0.45 | 97.9 | 219 |
| GpH7-A5/GpH7-B3 variant L328_06M/GpL16-k0 (antibody, human IgG1, kappa, Heterodimerized IgG1, mutation in the GpH7-B3 chain only; also called He Ab) heavy 1: not shown heavy 2: not shown light: DIVMTQSPLSLPVTPGEPASISCQASESLVHSNRNTYLHWYLQKPGQSPQLLIYKVSNRFSGVPDRFSGSGSGTDFTLKISRVEAEDVGVYYCSQNTHVPPTFGQGTKVEIERTVAAPSVFIFPPSDEQLKSGTASVVCLLNNFYPREAKVQWKVDNALQSGNSQESVTEQDSKDSTYSLSSTLTLSKADYEKHKVYACEVTHQGLSSPVTKSFNRGEC | 0.7 | 98.7 | 142 |
